Key:
[1] = target: HLA-A*02:01/MAGE-A4 complex (human) (UniProt P04439); assay: SPR
[2] = target: HLA-A*02:01/MAGE-A4 complex (human) (UniProt P04439); assay: SPR (Biacore T200), pMHC on streptavidin chip, 1:1 Langmuir fit

Kd [1] [nM] | Kd [2] [nM] | Binder
0.6 | 0.6 | M1302 (bispecific antibody, from a related filing, V domains shown) VH: EVQLLESGGGSVQPGGSLRLSCTVSGFSLSNYAMSWVRQAPGKGLEWIGIVSSGGTTYYASWAKGRFTISKDTSKNTVYLQMNSLRAEDTASYYCAKDLYYGPNTDYSAANLWGQGTSVTVSS VL: SYELTQPPSVSVSPGQTASITCTADTLSRSYASWYQQKPGQSPVLVIYRDTSRPSGIPERFSGSNSGNTATLTISGTQAMDEADYYCATRPSSGSNFQLFGGGTKLTVL
0.25 | 0.24 | M1041 (bispecific antibody, from a related filing, V domains shown) VH: ESQVLESGGGSVQPGGSLRLSCTVSGFSLSNYAMSWVRQAPGKGLEYIGIVSSGGTTYYASWAKGRFTISKDTSKNTVYLQMNSLRAEDTASYYCAKDLYYGPTTYSAFNLWGQGTSVTVSS VL: SYELTQPPSVSVSPGQTASITCTADTLSRSYASWYQQKPGQSPVLVIYRDTSRPSGIPERFSGSNSGNTATLTISGTQAMDEADYYCATRPSSGSNFQLFGGGTKLTVL
